Measured values from patent US20110289632A1, “METHYLKETONE SYNTHASE, PRODUCTION OF METHYLKETONES IN PLANTS AND BACTERIA” (The Regents of the University of Michigan, priority 2009, published 2011).

How the values were obtained:
3-ketomyristoyl-ACP = experiment: In vitro thioesterase activity assay; format: biochemical
Experimental: To examine the potential thioesterase activity of ShMKS1 and ShMKS2 in vitro, we added 2.5 μg of each protein to a 500 μL solution of freshly prepared 3-ketomyristoyl-ACP. This protein-linked substrate was prepared using a sequential in vitro enzymatic system involving the addition of multiple starting materials and enzymes and the reaction allowed to proceed for 5 hr (see Examples, Materials, and Methods). Due to the highly unstable nature of 3-ketomyristoyl-ACP, this compound was not further purified but instead the solution in which it was synthesized was used as the “substrate solution” for qualitative in vitro thioesterase activity assays.
Aliquots of this substrate solution were incubated with buffer, ShMKS1, ShMKS2, or both ShMKS1 and ShMKS2 for 30 min at 23° C. […]
3-Ketomyristoyl-ACP was synthesized in a 500 μL reaction volume containing 1,3-bis(tris(hydroxymethyl)methylamino) propane (20 mM, pH 7.0), malonyl-CoA (0.2 mM), lauroyl-CoA (0.2 mM), ShACP (0.1 mM), EcFabD (10 μg) and MtFabH (10 μg). […] Hexane extracts were analyzed by GC-MS as described above. The values for heat-treated samples shown in FIG. 20 were corrected for loss of methylketones during the heating step, as determined by comparisons with standards.

E. coli cells = experiment: GC-MS of methylketones in spent media of E. coli cells expressing ShMKS1, ShMKS2 or ShMKS2 (D79A); format: cell-based, Escherichia coli; conditions: with or without acid and heat treatment
Experimental: To test if expression of either ShMKS1 or ShMKS2 (without its transit peptide) in E. coli results in the formation of 3-ketoacids, we collected spent media of bacterial cells expressing each of them (by centrifuging out the cells at the end of the incubation period), heated the spent media at 75° C. for 30 min in the presence of 1 M sulfuric acid, extracted with hexane, then injected the hexane fraction in a GC-MS. […] On the other hand, the spent medium of E. coli cells expressing ShMKS2 contained 5.6±0.32 μg/μL of total methylketones, and the amount of methylketones increased […], to 40.7±2.1 μg/μL, after the spent medium was treated with acid and heat (FIG. 17).
The coding regions of ShMKS1 and ShMKS2 (minus the transit peptide-encoding region) were each amplified by PCR and inserted into the E. coli expression vector pEXP-TOPO-CT (Invitrogen). The expression vectors were introduced into E. coli BL21 Star (DE3) cells, and gene expression was induced by the addition of 0.5 mM IPTG after the culture optical density at 600 nm had reached 0.65. After induction with IPTG and growth at 18° C. overnight, the cells expressing ShMKS1 or ShMKS2 were centrifuged at 5000 rpm for 15 minutes, and 1-mL aliquots of the spent medium were placed in individual vials for further analysis. […]

[1] = Treatment of spent medium of ShMKS2-expressing E. coli with purified ShMKS1; format: biochemical; conditions: 3 μg/mL final concentration, incubated 2 h prior to hexane extraction
Experimental: Moreover, the treatment with purified ShMKS1 seemed to favor an increase in 2-tridecanone over other methylketones (FIG. 18).
Aliquots (1 mL) of the spent medium of E. coli expressing ShMKS2, obtained by centrifuging the culture solution after the incubation time at 5,000 rpm for 15 min and collecting the solution without the cells, were treated in the following ways: 1. Incubated with 40 μl (3 μg) of purified MKS1 in phosphate buffer (12.5 mM NaH2PO4, 125 mM NaCl, 2 mM DTT, pH 6.8) for 2 hrs at 30° C. 3. Incubated at 75° C. for 30 min followed by 30 min at 30° C. 4. Incubated with 1 mL of 2M H2SO4 at 75° C. for 30 min followed by 30 min at 30° C. After the various treatments, 1 mL of hexane containing 5 ng/μL linalool as an internal standard was added and the resulting mixture was vortexed and centrifuged at 5000 rpm for 10 min. Two μL of the resulting extract were injected into the GC-MS for determination of methylketones. GC-MS and product analysis were performed as described by Ben-Israel et al, (2009) Multiple biochemical and morphological factors underlie the production of methylketones in tomato trichomes, Plant Physiology 151: 1952-1964.

B1: ShMKS1: methylketone synthase 1 from Solanum habrochaites glabratum (SEQ ID NO: 17); recombinant, 3-ketoacid decarboxylase (protein)
chain: MEKSMSPFVKKHFVLVHTAFHGAWCWYKIVALMRSSGHNVTALDLGASGINPKQALQIPNFSDYLSPLMEFMASLPANEKIILVGHALGGLAISKAMETFPEKISVAVFLSGLMPGPNIDATTVCTKAGSAVLGQLDNCVTYENGPTNPPTTLIAGPKFLATNVYHLSPIEDLALATALVRPLYLYLAEDISKEVVLSSKRYGSVKRVFIVATENDALKKEFLKLMIEKNPPDEVKEIEGSDHVTMMSKPQQLFTTLLSIANKYK
modifications: ShMKS1
notes: recombinant, 3-ketoacid decarboxylase
amount of 2-tridecanone vs buffer-incubated sample treated with acid and heat (3-ketomyristoyl-ACP; 2.5 μg protein, 30 min at 23° C., directly extracted with hexane): slightly higher, but not significantly so | in vitro thioesterase activity (3-ketomyristoyl-ACP; 3-ketomyristoyl-ACP substrate solution): little or no | methylketones in spent medium (E. coli cells): no methylketones | levels of extractable methylketones vs spent medium treated with phosphate buffer alone [1]: significantly higher
